Measured values taken from paper PMC5499601 (Nucleic Acids Research, 2017).
Substitutions are numbered along the chain they refer to.

Tests used:
Experiment in all cases: EMSA
BsSpo0J R105A = target: T1, BsSpo0J R105A (UniProt P26497 1-282, R105A)
T1 sequence: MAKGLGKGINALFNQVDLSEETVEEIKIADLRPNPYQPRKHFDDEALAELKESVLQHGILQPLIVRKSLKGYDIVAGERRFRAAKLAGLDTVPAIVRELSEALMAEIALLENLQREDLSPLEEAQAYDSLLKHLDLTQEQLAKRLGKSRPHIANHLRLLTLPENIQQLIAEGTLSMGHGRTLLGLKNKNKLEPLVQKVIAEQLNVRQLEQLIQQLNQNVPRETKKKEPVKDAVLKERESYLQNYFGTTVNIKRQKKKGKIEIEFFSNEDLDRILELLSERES

BsSpo0J R79A = target: T2, BsSpo0J R79A (UniProt P26497 1-282, R79A)
T2 sequence: T1 sequence with R79A, A105R

BsSpo0J F81A = target: T3, BsSpo0J F81A (UniProt P26497 1-282, F81A)
T3 sequence: T1 sequence with F81A, A105R

BsSpo0J Q61R = target: T4, BsSpo0J Q61R (UniProt P26497 1-282, Q61R)
T4 sequence: T1 sequence with Q61R, A105R

BsSpo0J R105E = target: T5, BsSpo0J R105E (UniProt P26497 1-282, R105E)
T5 sequence: T1 sequence with A105E

BsSpo0J N112S = target: T6, BsSpo0J N112S (UniProt P26497 1-282, N112S)
T6 sequence: T1 sequence with A105R, N112S

BsSpo0J V75A = target: T7, BsSpo0J V75A (UniProt P26497 1-282, V75A)
T7 sequence: T1 sequence with V75A, A105R

BsSpo0J R82A = target: T8, BsSpo0J R82A (UniProt P26497 1-282, R82A)
T8 sequence: T1 sequence with R82A, A105R

BsSpo0J Q140R = target: T9, BsSpo0J Q140R (UniProt P26497 1-282, Q140R)
T9 sequence: T1 sequence with A105R, Q140R

Measured: binding result

B1: 39-bp parS (dsDNA)
DNA 1: CAGTTGAATCAGAATGTTCCACGTGAAACAAAGAAAAAA
DNA 2: TTTTTTCTTTGTTTCACGTGGAACATTCTGATTCAACTG
binds: all assays above
